{
  "source": "paper PMC10398351",
  "about": "“Structural and molecular insight into antibody recognition of dynamic neoepitopes in membrane tethered MUC1 of pancreatic cancer cells and secreted exosomes†” (RSC Chemical Biology, 2023)",
  "binders": {"B1": {"name": "Alexa488-conjugated SN-131 (antibody, V domains shown)", "VH": "QVQLQQSGAELARPGASVKLSCKASGYTFTNYGLSWVKQRTGQGLEWIGENHPGSGIIYHNEKFRGKATLTADKSSSTAYVQLSSLTSEDSAVYFCARSSGTRGFAYWGQGTLVTVSA", "VL": "DVLMTQTPLSLPVSLGDQASISCRSSQSIVHSNGNTYLEWYLQKPGQSPKLLIYKVSNRFSGVPDRFSGSGSGTDFTLKISRVEAEDLGVYYCFQGSHGPWTFGGGTKLEIK", "notes": "as the heavy chain of m1; Fab chains in PDB 8HRH; as the light chain of m1; IgG2a"}, "B2": {"name": "AP (alkaline phosphatase) labelled SN-131 mAb (antibody, V domains shown)", "VH": "B1 VH", "VL": "B1 VL", "notes": "as for B1"}},
  "key": {"[1]": {"biological_target": "T1, PANC-1 cell surface MUC1 (Homo sapiens, PANC-1 cells, UniProt P15941, O-glycans ST, T and/or Tn at the Thr of the Asp-Thr-Arg region, as the paper concludes)", "T1 construct": "MUC1, type 1 single-pass transmembrane mucin, endogenous in the human pancreatic cancer cell line PANC-1 (ATCC CRL-1469); also called endogenous MUC1 TRD; membrane-tethered MUC1; source: endogenous, on PANC-1 cells", "T1 sequence (P15941 24-1255)": "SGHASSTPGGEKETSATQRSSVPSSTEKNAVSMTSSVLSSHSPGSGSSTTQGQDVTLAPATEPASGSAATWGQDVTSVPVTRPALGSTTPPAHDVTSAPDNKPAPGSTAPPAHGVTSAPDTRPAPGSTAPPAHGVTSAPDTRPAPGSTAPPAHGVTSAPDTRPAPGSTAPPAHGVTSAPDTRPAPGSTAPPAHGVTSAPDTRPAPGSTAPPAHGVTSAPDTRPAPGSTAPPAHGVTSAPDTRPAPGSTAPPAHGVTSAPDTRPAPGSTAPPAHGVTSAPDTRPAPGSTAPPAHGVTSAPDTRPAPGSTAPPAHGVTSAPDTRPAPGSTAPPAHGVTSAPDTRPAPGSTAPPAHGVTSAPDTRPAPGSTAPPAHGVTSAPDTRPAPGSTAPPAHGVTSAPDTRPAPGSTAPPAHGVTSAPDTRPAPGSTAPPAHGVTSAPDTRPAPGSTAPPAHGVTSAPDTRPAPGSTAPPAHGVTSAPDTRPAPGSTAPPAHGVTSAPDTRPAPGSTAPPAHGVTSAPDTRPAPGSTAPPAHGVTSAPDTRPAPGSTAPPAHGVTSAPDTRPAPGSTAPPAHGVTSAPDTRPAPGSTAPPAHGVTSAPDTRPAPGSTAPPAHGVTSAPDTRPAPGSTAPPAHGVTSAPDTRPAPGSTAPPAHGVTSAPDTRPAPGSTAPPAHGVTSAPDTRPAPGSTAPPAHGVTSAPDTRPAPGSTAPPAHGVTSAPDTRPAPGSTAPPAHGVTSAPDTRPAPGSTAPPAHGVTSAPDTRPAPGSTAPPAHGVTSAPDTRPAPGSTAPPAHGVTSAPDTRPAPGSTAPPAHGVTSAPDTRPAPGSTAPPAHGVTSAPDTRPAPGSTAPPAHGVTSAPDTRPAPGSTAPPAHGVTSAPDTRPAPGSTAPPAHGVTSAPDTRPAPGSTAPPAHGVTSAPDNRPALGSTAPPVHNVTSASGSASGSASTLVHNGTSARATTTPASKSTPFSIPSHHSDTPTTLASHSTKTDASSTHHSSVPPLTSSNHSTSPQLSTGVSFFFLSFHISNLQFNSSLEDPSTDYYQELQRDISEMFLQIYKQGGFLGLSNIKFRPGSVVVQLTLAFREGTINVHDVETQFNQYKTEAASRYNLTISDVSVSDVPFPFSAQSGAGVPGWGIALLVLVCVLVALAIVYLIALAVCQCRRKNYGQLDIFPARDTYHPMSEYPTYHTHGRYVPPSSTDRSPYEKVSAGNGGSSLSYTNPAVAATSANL", "assay": "flow cytometry on cells; PANC-1 cells with Alexa 488 conjugated SN-131, 2 h on ice in PBS/EDTA, without or with 10 μM MUC1-5ST (8)", "settings": "one partner purified"}, "[2]": {"biological_target": "T2, MUC1 TRD on exosomes released from PANC-1 cells (Homo sapiens, PANC-1 exosomes, UniProt P15941)", "T2 construct": "also called exosomal MUC1 TRD-STs; cargo MUC1 TRD; source: endogenous, exosomes isolated by ultracentrifugation from PANC-1 culture supernatant", "T2 sequence (P15941 24-1255)": "as above", "assay": "ELISA; sandwich: exosomes from PANC-1 cells captured by coated anti-CD9 or anti-CD63 mAb, detected with AP-labelled SN-131 (1 μg/mL), room temperature", "settings": "one partner purified"}},
  "data": [
    {"binder": "B1", "values": [
      {"measurement": "binding result", "setting": "[1]", "value": "binds"}
    ]},
    {"binder": "B2", "values": [
      {"measurement": "binding result", "setting": "[2]", "value": "binds"}
    ]}
  ]
}
